Measured values taken from PMC3143201 (Journal of molecular biology, 2011).

B1: human Hsp90α MC two-domain construct (domain or fragment)
chain: not shown
B2: human Hsp90α full-length protein with part of the charged linker between N and M removed (Hsp90Δ) (natural protein)
chain: not shown

Biological target: the molecule itself
Assay: SEC

Protein | stoichiometry N
B1 | 2
B2 | 2
